Molecular target: Trimeric polymerase with PB2 71-73A (PB1 WT, PB2 71-73A, strep-tagged PA)
Settings: parent: est. 1.0; read off a plot

Substance: Trimeric influenza A virus A/WSN/1933 (H1N1) polymerase (PB1 wild type, PB2, HA-tagged PA) (from UniProt P15659) PB2 71-73A
- ratio to parent: 0.5 n-fold of WT
